Measurements as given in the supplement of paper PMC10724198.
± gives the standard deviation of the averaged measurements.

What was measured:
Saccharomyces cerevisiae [1] = assay: protein stability index of tFT-peptide fusion (C-terminal peptide) (PSI (0-1 scale)); higher = more stable (slower turnover); conditions: genetic background: wild type; temperature: 30 C
Saccharomyces cerevisiae [2] = assay: as above
Experimental: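 MPS profiling in S. cerevisiae of the tFT-X12 degron library: putative degron peptides plus stable controls, 12 aa, fused to the C-terminus of a sfGFP-mCherry timer. Cells are FACS-sorted into 8 mCherry/sfGFP bins and deep-sequenced. PSI runs from 0 (unstable) to 1 (stable). Backgrounds are wild type, das1Δ and doa10Δ at 30 °C, and wild type, das1Δ, cdc34-1 and cdc53-1 at 37 °C; 2-3 technical replicates each.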

[3] = genetic background: cdc34-1, temperature: 37 C
[4] = genetic background: cdc53-1, temperature: 37 C
[5] = genetic background: das1 deletion, temperature: 30 C
[6] = genetic background: das1 deletion, temperature: 37 C
[7] = genetic background: doa10 deletion, temperature: 30 C
[8] = genetic background: wild type, temperature: 30 C
[9] = genetic background: wild type, temperature: 37 C
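Further: PSI is a weighted mean of sequencing reads over stability bins, variants kept only with over 10 reads, mCherry proximal and sfGFP distal, peptide attached via GGGS linker.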

Row | Sequence | protein stability index (Saccharomyces cerevisiae [1]) | protein stability index (Saccharomyces cerevisiae [2]; [3]) | protein stability index (Saccharomyces cerevisiae [2]; [4]) | protein stability index (Saccharomyces cerevisiae [2]; [5]) | protein stability index (Saccharomyces cerevisiae [2]; [6]) | protein stability index (Saccharomyces cerevisiae [2]; [7]) | protein stability index (Saccharomyces cerevisiae [2]; [8]) | protein stability index (Saccharomyces cerevisiae [2]; [9])
1 | LIAPSACNLFLF | 0.412 ± 0.032 | 0.639 ± 0.04 | 0.7535 ± 0.0061 | 0.682 ± 0.015 | 0.7584 ± 0.0066 | 0.288 ± 0.0042 | 0.308 ± 0.018 | 0.5569 ± 0.005
2 | TFLCSSLALAVI | 0.405 ± 0.042 | 0.455 ± 0.03 | 0.509 ± 0.032 | 0.338 ± 0.022 | 0.4985 ± 0.0021 | 0.317 ± 0.023 | 0.334 ± 0.014 | 0.4789 ± 0.00054
3 | WVVWVLVGGFGG | 0.384 ± 0.032 | 0.299 ± 0.022 | 0.42448 ± 0.00021 | 0.277 ± 0.036 | 0.4813 ± 0.0047 | 0.232 ± 0.0043 | 0.266 ± 0.021 | 0.449 ± 0.03
4 | WIVQCCLYVPVQ | 0.377 ± 0.0076 | 0.288 ± 0.011 | 0.314 ± 0.017 | 0.25 ± 0.025 | 0.3619 ± 0.0011 | 0.212 ± 0.0053 | 0.237 ± 0.02 | 0.356 ± 0.024
5 | WGGEFLSLTLSS | 0.684 ± 0.027 | 0.732 ± 0.028 | 0.761 ± 0.018 | 0.664 ± 0.02 | 0.7821 ± 0.0073 | 0.679 ± 0.025 | 0.683 ± 0.021 | 0.743 ± 0.025
6 | WGCIFWFFDVRV | 0.386 ± 0.027 | 0.193 ± 0.0065 | 0.335 ± 0.015 | 0.229 ± 0.023 | 0.416 ± 0.018 | 0.203 ± 0.0046 | 0.207 ± 0.025 | 0.402 ± 0.026
7 | CPVSFSFCLKVL | 0.045 ± 0.016 | 0.348 ± 0.019 | 0.431 ± 0.03 | 0.32 ± 0.026 | 0.468 ± 0.016 | 0.0628 ± 0.019 | 0.0823 ± 0.021 | 0.115 ± 0.063
8 | PFGPTFSPRPFR | 0.773 ± 0.022 | 0.727 ± 0.048 | 0.767 ± 0.011 | 0.684 ± 0.015 | 0.7793 ± 0.0072 | 0.692 ± 0.023 | 0.701 ± 0.013 | 0.747 ± 0.0083
9 | ARALLGVGWYWV | 0.417 ± 0.024 | 0.654 ± 0.015 | 0.7854 ± 0.0065 | 0.645 ± 0.018 | 0.761 ± 0.02 | 0.225 ± 0.014 | 0.272 ± 0.02 | 0.537 ± 0.0059
10 | AEIVCLTDGLLF | 0.5 ± 0.2 | 0.715 ± 0.012 | 0.758 ± 0.038 | 0.623 ± 0.013 | 0.7252 ± 0.0028 | 0.641 ± 0.028 | 0.665 ± 0.024 | 0.707 ± 0.0076
11 | FTEFWFFKQMSV | 0.171 ± 0.016 | 0.579 ± 0.019 | 0.761 ± 0.015 | 0.618 ± 0.031 | 0.7757 ± 0.0069 | 0.11 ± 0.01 | 0.126 ± 0.022 | 0.137 ± 0.04
12 | GGMVRSCLWCFV | 0.432 ± 0.01 | 0.675 ± 0.034 | 0.755 ± 0.014 | 0.6 ± 0.011 | 0.754 ± 0.029 | 0.322 ± 0.011 | 0.357 ± 0.018 | 0.585 ± 0.0078
13 | FFILVFFSLLST | 0.404 ± 0.032 | 0.2927 ± 0.0014 | 0.445 ± 0.018 | 0.283 ± 0.049 | 0.441 ± 0.032 | 0.244 ± 0.041 | 0.274 ± 0.033 | 0.4056 ± 0.0022
14 | SVLASFFSAFVC | 0.195 ± 0.01 | 0.459 ± 0.0087 | 0.6975 ± 0.0014 | 0.598 ± 0.011 | 0.7258 ± 0.0054 | 0.118 ± 0.015 | 0.118 ± 0.023 | 0.149 ± 0.0027
15 | FRCFVLPYFGRF | 0.435 ± 0.036 | 0.608 ± 0.032 | 0.699 ± 0.021 | 0.647 ± 0.0081 | 0.7 ± 0.0079 | 0.372 ± 0.037 | 0.37 ± 0.015 | 0.5489 ± 0.0039
16 | FLAPPFLPPPPA | 0.748 ± 0.016 | 0.693 ± 0.021 | 0.7351 ± 0.00039 | 0.672 ± 0.014 | 0.758 ± 0.016 | 0.683 ± 0.02 | 0.705 ± 0.011 | 0.737 ± 0.015
17 | GGHGGRRRKGVG | 0.41 ± 0.046 | 0.36 ± 0.017 | 0.45 ± 0.0053 | 0.414 ± 0.019 | 0.435 ± 0.0098 | 0.409 ± 0.0082 | 0.381 ± 0.0054 | 0.439 ± 0.013
18 | FWGRAGVWRLKG | 0.334 ± 0.025 | 0.684 ± 0.044 | 0.759 ± 0.019 | 0.651 ± 0.021 | 0.7821 ± 0.0066 | 0.228 ± 0.0067 | 0.276 ± 0.026 | 0.595 ± 0.022
19 | WGIPRRPTLFIP | 0.434 ± 0.015 | 0.65 ± 0.0098 | 0.749 ± 0.03 | 0.658 ± 0.011 | 0.7417 ± 0.00092 | 0.296 ± 0.023 | 0.325 ± 0.035 | 0.5193 ± 0.0044
20 | MALAVRVVYCGA | 0.378 ± 0.0028 | 0.349 ± 0.015 | 0.391 ± 0.01 | 0.293 ± 0.023 | 0.4395 ± 0.0024 | 0.234 ± 0.011 | 0.283 ± 0.027 | 0.415 ± 0.021
21 | VSPATFLFYFFF | 0.497 ± 0.017 | 0.62 ± 0.022 | 0.688 ± 0.011 | 0.544 ± 0.02 | 0.655 ± 0.0092 | 0.37374 ± 0.00014 | 0.396 ± 0.013 | 0.5607 ± 0.00097
22 | FVSVAGFIVVVV | 0.4076 ± 0.00077 | 0.47 ± 0.018 | 0.488 ± 0.036 | 0.293 ± 0.048 | 0.5341 ± 0.0027 | 0.291 ± 0.013 | 0.28 ± 0.034 | 0.498 ± 0.0068
23 | SVFVFFGFIDFL | 0.469 ± 0.011 | 0.52 ± 0.015 | 0.589 ± 0.12 | 0.404 ± 0.036 | 0.6007 ± 0.0035 | 0.369 ± 0.015 | 0.412 ± 0.036 | 0.581 ± 0.0099
24 | LSAVISLRIQLS | 0.449 ± 0.021 | 0.595 ± 0.093 | 0.603 ± 0.051 | 0.518 ± 0.032 | 0.546 ± 0.0071 | 0.3636 ± 0.0016 | 0.379 ± 0.04 | 0.4919 ± 0.0018
25 | CSRTRLHCFTAS | 0.712 ± 0.011 | 0.696 ± 0.062 | 0.7452 ± 0.0029 | 0.647 ± 0.028 | 0.74183 ± 0.00066 | 0.5808 ± 0.0019 | 0.585 ± 0.027 | 0.6796 ± 0.005
26 | SCLSLALLVFFG | 0.411 ± 0.061 | 0.442 ± 0.014 | 0.524 ± 0.031 | 0.36 ± 0.019 | 0.523 ± 0.014 | 0.315 ± 0.0051 | 0.349 ± 0.02 | 0.515 ± 0.039
27 | GLFCCFLCLSVF | 0.261 ± 0.015 | 0.241 ± 0.0047 | 0.297 ± 0.018 | 0.241 ± 0.041 | 0.343 ± 0.015 | 0.2 ± 0.004 | 0.204 ± 0.026 | 0.275 ± 0.017
28 | VCLWVEVLIVLG | 0.209 ± 0.011 | 0.0839 ± 0.023 | 0.205 ± 0.056 | 0.136 ± 0.03 | 0.25 ± 0.014 | 0.106 ± 0.031 | 0.129 ± 0.021 | 0.183 ± 0.0078
29 | SAVLFLLFVYVR | 0.254 ± 0.0093 | 0.0536 ± 0.0084 | 0.081 ± 0.012 | 0.156 ± 0.026 | 0.234 ± 0.011 | 0.1678 ± 0.00051 | 0.14 ± 0.046 | 0.176 ± 0.023
30 | ARSGGYLMVVLV | 0.463 ± 0.031 | 0.56 ± 0.033 | 0.599 ± 0.011 | 0.41 ± 0.032 | 0.601 ± 0.011 | 0.351 ± 0.0013 | 0.384 ± 0.023 | 0.562 ± 0.038
